Experimental findings from publication PMC3280358 (2012) are described below.

The Kd is the equilibrium constant for the complex coming apart.

The target of experiment [1] is T13 monophosphorylated Rad51 NTD peptide (human, UniProt Q06609, phosphothreonine at T13). Briefly: ITC. Background: ITC needs no label: the signal is the heat of the interaction.
In experiment [2] the target is T13/S14 diphosphorylated Rad51 NTD peptide (human, UniProt Q06609, phosphothreonine at T13; phosphoserine at S14). Briefly: ITC.

Changes are numbered by the printed parent chain. In names and notes the source's numbering stands.

B1: Nbs1 (1-382) K160M (domain or fragment)
chain: MWKLLPAAGPAGGEPYRLLTGVEYVVGRKNCAILIENDQSISRNHAVLTANFSVTNLSQTDEIPVLTLKDNSKYGTFVNEEKMQNGFSRTLKSGDGITFGVFGSKFRIEYEPLVACSSCLDVSGKTALNQAILQLGGFTVNNWTEECTHLVMVSVKVTIMTICALICGRPIVKPEYFTEFLKAVESKKQPPQIESFYPPLDEPSIGSKNVDLSGRQERKQIFKGKTFIFLNAKQHKKLSSAVVFGGGEARLITEENEEEHNFFLAPGTCVVDTGITNSQTLIPDCQKKWIQSIMDMLQRQGLRPIPEAEIGLAVIFMTTKNYCDPQGHPSTGLKTTTPGPSLSQGVSVDEKLMPSAPVNTTTYVADTESEQADTWDLSERPK
Consider B1, for which the Kd in experiment [1] amounted to 24 µM.

B2: recombinant fragment of Nbs1 (residues 1-382), wild type (domain or fragment)
chain: B1 chain with M160K
In experiment [2], B2 registered a Kd of 57 µM.
